± gives the half width of the 95% confidence interval.
How the values were obtained:
[1] = folding stability dG unfold from chymotrypsin proteolysis; higher = more stable
Method in brief: (§1)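 Designed mini-proteins (under 80 residues, no cysteine) in a PA-tagged cDNA display construct were digested with trypsin and chymotrypsin. Each protease was used at 11 concentrations (threefold dilutions) plus a no-protease condition, followed by sequencing. K50 was inferred by Bayesian fitting of sequencing counts, and unfolding free energy was derived against a sequence-predicted unfolded-state K50 and a shared folded-state K50, per protease or combined. Only designs with AlphaFold2 dimer inter-PAE above 15 were kept.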

[2] = folding stability dG unfold from trypsin proteolysis; higher = more stable
Method in brief: as §1

[3] = folding stability dG unfold (combined trypsin and chymotrypsin); higher = more stable
Method in brief: as §1

Row | Sequence | folding stability dG unfold [1] [kcal/mol] | folding stability dG unfold [2] [kcal/mol] | folding stability dG unfold [3] [kcal/mol]
1 | SAGGKVTLIEVEFEGGNPTISLTVTNADGSVEAVFVSPSPTDVLYATATLTVGGHPVVVVARASKDESAGGS [r16_672_TrMRF] | 2.11 ± 0.056 | 1.3 ± 0.094 | 1.8 ± 0.12
2 | SAGGSAGGSATRVEVEWKDGYLVITKYETLPNGEWKEVKTIVIPIEGNDPIAIEKAKEVIEKLSAGGSAGGS [r12_169_JUSTAS] | 2.89 ± 0.049 | 2.89 ± 0.051 | 2.9 ± 0.064
3 | SAGGSAGGSAKEVIIEIKVPPNMTEDEIKELLKKKFKGKKVEIKIEKKKNKNGTLIYKVEVKSAGGSAGGSA [r18_360_TrROS_Hall] | 3.13 ± 0.12 | 2.6 ± 0.15 | 2.73 ± 0.34
4 | SAGGSAGGSAGKIPEIIKKTNAVEKDGKIFLGIKTDGKYYLIELEKKTLKIKKIEPFPDKSAGGSAGGSAGG [r11_808_TrMRF] | 0.776 ± 0.12 | -0.135 ± 0.14 | 0.488 ± 0.085
5 | SEKPEVTIKIEVEEREDGYLVVRVEVTFPEDPEKVELTLEMSREEAEELAKKLAEELPGVKVKVEIVELPSA [r9_374_TrROS_Hall] | 2.4 ± 0.17 | 2.41 ± 0.17 | 2.44 ± 0.14
6 | SAGGSAGGSAGGKVEEVEKLAEELEKELGVDIGEVEVLDHPDKFRYRIRIPDLDLDLEFSAGGSAGGSAGGS [r10_161_TrMRF] | -0.0226 ± 0.17 | -0.529 ± 0.18 | -0.103 ± 0.11
7 | SSVTLVLEKPLPSGKRLVVVTTLKPEPARGTVRLDVTTTTYTFSKTENGEITTSSTTSTSTETVSPEELLSA [r9_1137_JUSTAS] | 2.48 ± 0.18 | 2.53 ± 0.13 | 2.49 ± 0.29
8 | SAGGSAGGSAGGKKPITLTVLVTDPDGYLLQRTTTLTLDEDTNELTATTTVTRIPLEDLSAGGSAGGSAGGS [r10_1225_TrROS_Hall] | 1.97 ± 0.088 | 0.684 ± 0.11 | 1.6 ± 0.13
9 | SAGGSAGGSAGGPMEPIELTFMIPHPNGHPIVAKTEIWRMKNGFFIKPEIYNPDGNPIPSAGGSAGGSAGGS [r10_1056_TrROS] | -0.377 ± 0.3 | -0.153 ± 0.25 | -0.207 ± 0.18
10 | SAGGSAGGSAGEEEELPLVIRVRFKGPEEVEIEIEAESLEDALAAIESLPDIEEIEILPRSAGGSAGGSAGG [r11_587_TrROS_Hall] | 1.982 ± 0.0079 | 0.632 ± 0.034 | 1.61 ± 0.055
11 | SAGGSAGGSKELLKNLPPGAKITVEKKEDGTVRITITNKDGSEKEIEIKVNGKIIKLTIKKKPSAGGSAGGS [r20_50_TrROS_Hall] | 0.245 ± 0.42 | 2.04 ± 0.098 | 1.04 ± 0.32
12 | SAGGSAGGSSQRIKIEDIEPPPNGQWRVRIKMPNGKEREVTMPPDKLEIELPPNITDVSLWPVSAGGSAGGS [r20_194_TrROS] | 3.91 ± 0.33 | 3.88 ± 0.16 | 4.01 ± 0.33
13 | SAGEKEYVNLPLVVKLPPGVPASLILDAAVKHGAKEVTIVEEPTPDGGMVLHINLVLPKEALPKLLESLSAG [r5_376_TrMRF] | 4.61 ± 0.17 | 4.39 ± 0.21 | 4.79 ± 0.3
14 | SAGGSAGGSAGMNITITFPDGTVVEIPDVPPEYADVTPEKLKEEVLKKYPNVNVKVSPNGSAGGSAGGSAGG [r17_42_JUSTAS] | 0.127 ± 0.038 | 0.302 ± 0.055 | 0.101 ± 0.22
15 | SAGGSAGGSAGHIPIIFQFEFEHYDPDDGKPKEHRWVIVIEFDGNGIKNIRIIPKEDAKKLLSAGGSAGGSA [r18_406_TrROS] | 2.28 ± 0.047 | 2.31 ± 0.085 | 2.25 ± 0.14
16 | SAGGSAIIVIEIEMGGKPVPIMIPIPPNMPPEDAREEIKELAKQEVRDPDGKPVRVKIEVIPPPPESAGGSA [r15_246_TrROS] | 0.945 ± 0.031 | 0.163 ± 0.059 | 0.626 ± 0.11
17 | SAGGSAGGSMPKTYSFKVKSKEEIVKLIEELKKLGAKKVEVKELPDGYELYVEVGDSVIKVYSSAGGSAGGS [r12_846_TrMRF] | 1.1 ± 0.16 | 1.31 ± 0.065 | 1.24 ± 0.13
18 | SAGKIEIEVNEDGYKVRIKVEIEGKTYEFEIKVEGLSVEEIVKKALEELKKLFPNKKIKVEVEILPKKESAG [r5_180_TrROS_Hall] | 4.81 ± 0.3 | 4.14 ± 0.21 | 4.9 ± 0.54
19 | SAGGSAGGSLMIPIPPGKPINIKFEIKNDDGHPMRITETYPVKNGYYVIRVENPNGNEQIIPFSAGGSAGGS [r12_31_TrROS] | -0.271 ± 0.2 | -0.247 ± 0.15 | -0.185 ± 0.14
20 | SVEELAKKLAELFPNVKVTVTEEEIDGKKVKTIRIENKKTGKTYEITVLPNGEILITDSNGKKFSLEELLSA [r9_1176_TrROS_Hall] | 4.91 ± 0.31 | 4.26 ± 0.27 | 4.86 ± 0.25
21 | SAGKKKKIKKIEIEIEKNKDGKEIKVKVKVDGKEYEFTFPKNMSLEELLKKLKEELEKEGLKIEEVEIKSAG [r5_305_TrROS_Hall] | 2.8 ± 0.13 | 2.5 ± 0.13 | 2.73 ± 0.18

Row | Sequence | folding stability dG unfold [1] [kcal/mol] | folding stability dG unfold [2] [kcal/mol] | folding stability dG unfold [3] [kcal/mol]
22 | SAGGSAGGSAGGQLKLKLKVKVTTRVRDPATGKTYTVTEEVEVTVELEFPPPPLPPGFKSAGGSAGGSAGGS [r10_1026_TrROS_Hall] | 4.2 ± 0.17 | 2.7 ± 0.22 | 3.64 ± 0.21
23 | SAPWRITDIDVKRHPNGRVRVTIRFPHPNMSVEIWLDKDGELDVEVSPDMRNHPPWFQNMIRDVAKELLSAG [r14_555_TrROS] | 1.33 ± 0.11 | 2.77 ± 0.1 | 2.15 ± 0.1
24 | MKEYLIKIKITITDPNGKKREIEITVLVPAEELTEEQLKELLEKAKELAEKLKEKGYEVKVEVEIIPLEELS [r1_221_TrROS_Hall] | 4.23 ± 0.21 | 3.83 ± 0.27 | 4.25 ± 0.27
25 | SAGGSAGGSAMKTIEIDIVIKNKETGEYYKAKAKIFENEDGSLIIEIEFEKNGKTLLIVLPPSAGGSAGGSA [r18_426_TrROS_Hall] | 3.82 ± 0.11 | 3.31 ± 0.096 | 3.61 ± 0.2
26 | SAGTIWIPVDELKELGIPPGDTAEEFKQQISDRLMEQGWTVKIPDIEVEPLDPNDGRVWVRINIEFKPPSAG [r5_23_TrROS] | 0.42 ± 0.2 | 1.26 ± 0.05 | 0.94 ± 0.17
27 | SATTTLNLSSVEELKELVEKLIAEGNPEATLTVTLYPPSGESSTKSFSSVEEVIEELKKGPASVTITVTSSA [r9_589_JUSTAS] | 2.7 ± 0.022 | 2.18 ± 0.045 | 2.56 ± 0.049
28 | SGFTVEVEVEYYPETGVLEVTVTTDGSSEQLIRDVADFIKEAGLDFVIESVEVEESGEVTTITLKLYVPPSA [r9_164_TrMRF] | 4 ± 0.12 | 3.03 ± 0.18 | 3.78 ± 0.21
29 | SAGGSAGGMLLSSEEELEEELKRVREEGIGEVEVQVVDEKGNIHTLPTFVENPGPEPLPNEKLLSAGGSAGG [r6_258_JUSTAS] | 0.643 ± 0.049 | 0.558 ± 0.066 | 0.628 ± 0.13
30 | SAGGSAGGSPVVVIEVPAEDLSPEDIKALLAAAPDENAVIVITNPDGEKRTLVFTPDGRIEPLSAGGSAGGS [r12_1054_TrROS_Hall] | 0.451 ± 0.1 | 0.681 ± 0.024 | 0.593 ± 0.042
31 | SAGGSPVYKVEIRMTIVDKNGTVKSIVNLELTFKTEEEIEKFLESIPKETVVEIEIEKRTVEPPEKLSAGGS [r16_677_JUSTAS] | 0.699 ± 0.068 | 2.12 ± 0.055 | 1.41 ± 0.11
32 | SAGGSAGGSAGVIRVKLKDGPVREIPLEDVPPELLNTPELLAAIEALAREAGYEIESIEASAGGSAGGSAGG [r11_467_TrMRF] | 2.22 ± 0.029 | 1.7 ± 0.038 | 2.03 ± 0.056
33 | SAGGSAGGSAGGAKKAIEEAIKAGYLPYEDPESGKIHFYFPTPDGTIHKLTLFVAPEEESAGGSAGGSAGGS [r10_1173_TrMRF] | 0.711 ± 0.17 | 0.591 ± 0.03 | 0.796 ± 0.14
34 | SAGGSAGGSAGGMIIKINGKYYKIKKIEKNPNGKYTITTENGKKYEFKNVKIFSEEELKSAGGSAGGSAGGS [r10_1151_TrROS_Hall] | 4.19 ± 0.061 | 3.05 ± 0.18 | 3.86 ± 0.18
35 | SAGGSMEIVKKETFTLEDGRKIEVVYDKETNKYVVKIYNKETGEEVEITVKSKEEAEEALKKLLEESAGGSA [r2_70_TrROS_Hall] | 3.76 ± 0.072 | 1.88 ± 0.13 | 3.43 ± 0.37
36 | SAGGSAGGSAMTVTITHDVPPDVSVTVTVTSNNKKIPVSTPSRAASATIPSSEVSSLEIVPSSAGGSAGGSA [r18_170_JUSTAS] | 0.792 ± 0.043 | -0.362 ± 0.29 | 0.496 ± 0.12
37 | SAGGSAGGSAGGPFPFKIDSVEWETTDNKRYYEIKLEFPNGNPVTIHMPPNNPDDVKDAISAGGSAGGSAGG [r7_365_TrROS] | -0.00838 ± 0.25 | 0.232 ± 0.071 | 0.144 ± 0.2
38 | SAGGSAKFKLEATPLEDGTLIIPIEIEVTVEKPFPDPNGIPKIKPVKKKFRFLIIKDGDEIKIFLGSAGGSA [r15_883_TrMRF] | 2.66 ± 0.097 | 1.59 ± 0.089 | 2.31 ± 0.23
39 | SAGGSAGGSMIEYPELTLEELKAKFEAEGYTVEEEPPTNVVTLTPPDGTPITVTVTPVPESLLSAGGSAGGS [r12_211_JUSTAS] | 0.352 ± 0.013 | 1.21 ± 0.043 | 0.803 ± 0.057
40 | SAGGAFPPGEKVEVRIEVVELPGEGTYLLRAYLPGGKLLWERPFPEGELEAFAEEFRSLGFDTVEVTPSAGG [r13_765_TrMRF] | 2.736 ± 0.0075 | 2.512 ± 0.021 | 2.69 ± 0.035
41 | SAGGSAGGSAGGKTVLISLEDLEALKKLPPGAKVKIEPIKTPEGTVYRVNVETGKIEKVPSAGGSAGGSAGG [r7_765_TrROS_Hall] | 0.175 ± 0.26 | -0.24 ± 0.21 | 0.0992 ± 0.22

Source: the supplement of paper PMC12764529
